Experimental findings from patent US11267868 (dated 2022) are described below.

Like-named read-outs stand apart in the source and are kept apart here.

Assay in all cases: SPR
(In SPR one partner is held on a chip, and binding of the other changes the refractive index at the surface.)

The target of assay [1] is T1, FcgRIIaH (human, UniProt P12318).
T1 chain: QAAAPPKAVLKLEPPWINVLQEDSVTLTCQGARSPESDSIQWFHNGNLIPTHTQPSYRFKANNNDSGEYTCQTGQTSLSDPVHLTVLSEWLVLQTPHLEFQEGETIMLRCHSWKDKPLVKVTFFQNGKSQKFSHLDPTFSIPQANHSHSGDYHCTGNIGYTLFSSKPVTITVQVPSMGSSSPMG

The target of assay [2] is T2, FcgRIIb (human, UniProt P31994).
T2 chain: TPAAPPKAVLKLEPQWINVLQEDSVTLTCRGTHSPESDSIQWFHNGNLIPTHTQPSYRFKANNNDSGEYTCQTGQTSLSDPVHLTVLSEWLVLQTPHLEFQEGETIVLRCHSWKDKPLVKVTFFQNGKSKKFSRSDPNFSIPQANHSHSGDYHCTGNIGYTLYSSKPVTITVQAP

Assay [3] deals with T3, FcgRIa (human, UniProt P12314).
T3 chain: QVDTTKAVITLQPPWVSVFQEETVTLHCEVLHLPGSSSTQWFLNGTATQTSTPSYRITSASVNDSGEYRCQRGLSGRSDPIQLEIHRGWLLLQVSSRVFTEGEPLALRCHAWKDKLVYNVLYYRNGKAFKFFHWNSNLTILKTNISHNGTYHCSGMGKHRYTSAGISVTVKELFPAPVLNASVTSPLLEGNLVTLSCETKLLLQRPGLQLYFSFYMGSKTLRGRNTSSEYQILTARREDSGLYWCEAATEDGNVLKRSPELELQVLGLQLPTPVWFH

Assay [4] concerns the target T4, FcgRIIaR (human, UniProt P12318).
T4 chain: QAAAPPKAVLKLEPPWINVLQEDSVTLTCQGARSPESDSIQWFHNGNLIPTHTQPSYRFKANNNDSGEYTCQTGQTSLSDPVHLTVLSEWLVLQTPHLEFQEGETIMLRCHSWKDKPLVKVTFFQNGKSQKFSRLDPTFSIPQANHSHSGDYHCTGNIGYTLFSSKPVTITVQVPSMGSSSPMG

Assay [5] concerns the target T5, FcgRIIIaV (human, UniProt P08637).
Assay [6] concerns the target T4, FcgRIIaR.
For assay [7], the target named is T1, FcgRIIaH.
The target in assay [8] is T5, FcgRIIIaV. The source holds these as a separate data set.
In assay [9] the target is T3, FcgRIa.
Assay [10] concerns the target T2, FcgRIIb.

T5 sequence (P08637 17-208 F176V): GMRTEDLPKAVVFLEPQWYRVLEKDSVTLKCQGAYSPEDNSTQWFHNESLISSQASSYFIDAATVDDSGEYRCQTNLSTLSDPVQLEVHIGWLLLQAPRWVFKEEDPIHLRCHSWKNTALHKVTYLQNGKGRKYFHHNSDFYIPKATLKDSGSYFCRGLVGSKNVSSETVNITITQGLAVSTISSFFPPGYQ

B1: IL6R-P733/IL6R-L (antibody)
chain 1: QVQLQESGPGLVKPSETLSLTCAVSGHSISHDHAWSWVRQPPGEGLEWIGFISYSGITNYNPSLQGRVTISRDNSKNTLYLQMNSLRAEDTAVYYCARSLARTTAMDYWGEGTLVTVSSASTKGPSVFPLAPSSKSTSGGTAALGCLVKDYFPEPVTVSWNSGALTSGVHTFPAVLQSSGLYSLSSVVTVPSSSLGTQTYICNVNHKPSNTKVDKKVEPKSCDKTHTCPPCPAPELFGQDSVMLFPPKPKDTLMISRTPEVTCVVVDVSPEDPEVKFNWYVDGVEVHNAKTKPREEQENSTYRVVSVLTVLHQDWLNGKEYKCKVHNKALPAPIEKTISKAKGQPREPQVYTLPPSRDELTKNQVSLTCLVKGFYPSDIAVEWESNGQPENNYKTTPPVLDSDGSFFLYSKLTVDKSRWQQGNVFSCSVMHEALHNHYTQKSLSLSP
chain 2: not shown
In the case of B1, the Kd (as a rule, the free concentration of one partner at which half of the binding sites on the other are occupied at equilibrium, for simple one-to-one binding) with FcgRIIaH [1] amounted to 180 µM; with FcgRIIb [2] it was 4.7 µM; in the assay with FcgRIa [3], 2.5 µM; in the assay with FcgRIIaR [4], 130 µM; in the assay with FcgRIIIaV [5], 77 µM.

B2: IL6R-P631/IL6R-L (antibody)
chain 1: QVQLQESGPGLVKPSETLSLTCAVSGHSISHDHAWSWVRQPPGEGLEWIGFISYSGITNYNPSLQGRVTISRDNSKNTLYLQMNSLRAEDTAVYYCARSLARTTAMDYWGEGTLVTVSSASTKGPSVFPLAPSSKSTSGGTAALGCLVKDYFPEPVTVSWNSGALTSGVHTFPAVLQSSGLYSLSSVVTVPSSSLGTQTYICNVNHKPSNTKVDKKVEPKSCDKTHTCPPCPAPDLLGGDSVFLFPPKPKDTLMISRTPEVTCVVINVAEEDGEVKFNWYVDGVEVHNAKTKPREEQYNSTYRVVSVLTVLHQDWLNGKEYKCKVSNKALPAPIEKTISKAKGQPREPQVYTLPPSRDELTKNQVSLTCLVKGFYPSDIAVEWESNGQPENNYKTTPPVLDSDGSFFLYSKLTVDKSRWQQGNVFSCSVMHEALHNHYTQKSLSLSP
chain 2: not shown
With B2, the dissociation constant (Kd) stood at 26 µM in the assay with FcgRIIaR [6]; 96 µM with FcgRIIaH [7]; 47 µM with FcgRIIIaV [8]; 0.011 µM with FcgRIa [9]; 4.4 µM in the assay with FcgRIIb [10].

B3: IL6R-P727/IL6R-L (antibody)
chain 1: QVQLQESGPGLVKPSETLSLTCAVSGHSISHDHAWSWVRQPPGEGLEWIGFISYSGITNYNPSLQGRVTISRDNSKNTLYLQMNSLRAEDTAVYYCARSLARTTAMDYWGEGTLVTVSSASTKGPSVFPLAPSSKSTSGGTAALGCLVKDYFPEPVTVSWNSGALTSGVHTFPAVLQSSGLYSLSSVVTVPSSSLGTQTYICNVNHKPSNTKVDKKVEPKSCDKTHTCPPCPAPELLGQDSVMLFPPKPKDTLMISRTPEVTCVVVDVSPEDPEVKFNWYVDGVEVHNAKTKPREEQENSTYRVVSVLTVLHQDWLNGKEYKCKVSNKALPHPIEKTISKAKGQPREPQVYTLPPSRDELTKNQVSLTCLVKGFYPSDIAVEWESNGQPENNYKTTPPVLDSDGSFFLYSKLTVDKSRWQQGNVFSCSVMHEALHNHYTQKSLSLSP
chain 2: not shown
For B3, the Kd with FcgRIIaH [1] was found to be 150 µM; with FcgRIIb [2], 4.8 µM; with FcgRIa [3], 0.23 µM; in the assay with FcgRIIaR [4] it was 100 µM; with FcgRIIIaV [5], 66 µM.

B4: IL6R-P653/IL6R-L (antibody)
chain 1: QVQLQESGPGLVKPSETLSLTCAVSGHSISHDHAWSWVRQPPGEGLEWIGFISYSGITNYNPSLQGRVTISRDNSKNTLYLQMNSLRAEDTAVYYCARSLARTTAMDYWGEGTLVTVSSASTKGPSVFPLAPSSKSTSGGTAALGCLVKDYFPEPVTVSWNSGALTSGVHTFPAVLQSSGLYSLSSVVTVPSSSLGTQTYICNVNHKPSNTKVDKKVEPKSCDKTHTCPPCPAPELLGGDSVMLFPPKPKDTLMISRTPEVTCVVVDVSPEDPEVKFNWYVDGVEVHNAKTKPREEQENSTYRVVSVLTVLHQDWLNGKEYKCKVSNKALPAPIEKTISKAKGQPREPQVYTLPPSRDELTKNQVSLTCLVKGFYPSDIAVEWESNGQPENNYKTTPPVLDSDGSFFLYSKLTVDKSRWQQGNVFSCSVMHEALHNHYTQKSLSLSP
chain 2: not shown
Turning to B4, the Kd with FcgRIIaH [1] was 110 µM; with FcgRIIb [2], 3.5 µM; with FcgRIa [3], 0.018 µM; with FcgRIIaR [4], 51 µM; with FcgRIIIaV [5], 50 µM.

B5: IL6R-P661/IL6R-L (antibody)
chain 1: QVQLQESGPGLVKPSETLSLTCAVSGHSISHDHAWSWVRQPPGEGLEWIGFISYSGITNYNPSLQGRVTISRDNSKNTLYLQMNSLRAEDTAVYYCARSLARTTAMDYWGEGTLVTVSSASTKGPSVFPLAPSSKSTSGGTAALGCLVKDYFPEPVTVSWNSGALTSGVHTFPAVLQSSGLYSLSSVVTVPSSSLGTQTYICNVNHKPSNTKVDKKVEPKSCDKTHTCPPCPAPELLGGDSVFLFPPKPKDTLMISRTPEVTCVVVDVSHEDPEVKFNWYVDGVEVHNAKTKPREEQYNATYRVVSVLTVLHQDWLNGKEYKCKVSNKALPHPIEKTISKAKGQPREPQVYTLPPSRDELTKNQVSLTCLVKGFYPSDIAVEWESNGQPENNYKTTPPVLDSDGSFFLYSKLTVDKSRWQQGNVFSCSVMHEALHNHYTQKSLSLSP
chain 2: not shown
With B5, the Kd with FcgRIIaH [1] turned out to be 94 µM; with FcgRIIb [2], 4 µM; with FcgRIa [3] it was 0.01 µM; with FcgRIIaR [4], 41 µM; with FcgRIIIaV [5], 29 µM.

B6: IL6R-P652/IL6R-L (antibody)
chain 1: QVQLQESGPGLVKPSETLSLTCAVSGHSISHDHAWSWVRQPPGEGLEWIGFISYSGITNYNPSLQGRVTISRDNSKNTLYLQMNSLRAEDTAVYYCARSLARTTAMDYWGEGTLVTVSSASTKGPSVFPLAPSSKSTSGGTAALGCLVKDYFPEPVTVSWNSGALTSGVHTFPAVLQSSGLYSLSSVVTVPSSSLGTQTYICNVNHKPSNTKVDKKVEPKSCDKTHTCPPCPAPDLLGDDSVFLFPPKPKDTLMISRTPEVTCVVIDVYEEDGEVKFNWYVDGVEVHNAKTKPREEQDNSTYRVVSVLTVLHQDWLNGKEYKCKVSNKALPRPIEKTISKAKGQPREPQVYTLPPSRDELTKNQVSLTCLVKGFYPSDIAVEWESNGQPENNYKTTPMVLDSDGSFFLYSKLTVDKSRWQQGNVFSCSVMHEALHNHYTQKSLSLSP
chain 2: not shown
Consider B6, for which the dissociation constant Kd with FcgRIIaR [6] worked out at 24 µM; in the assay with FcgRIIaH [7], 170 µM; with FcgRIIIaV [8] it was 72 µM; with FcgRIa [9], 0.72 µM; in the assay with FcgRIIb [10] it was 1.2 µM.

B7: IL6R-P665/IL6R-L (antibody)
chain 1: QVQLQESGPGLVKPSETLSLTCAVSGHSISHDHAWSWVRQPPGEGLEWIGFISYSGITNYNPSLQGRVTISRDNSKNTLYLQMNSLRAEDTAVYYCARSLARTTAMDYWGEGTLVTVSSASTKGPSVFPLAPSSKSTSGGTAALGCLVKDYFPEPVTVSWNSGALTSGVHTFPAVLQSSGLYSLSSVVTVPSSSLGTQTYICNVNHKPSNTKVDKKVEPKSCDKTHTCPPCPAPDLLGDDSVFLFPPKPKDTLMISRTPEVTCVVIDVAEEDGEVKFNWYVDGVEVHNAKTKPREEQDASTYRVVSVLTVLHQDWLNGKEYKCKVSNKALPRPIEKTISKAKGQPREPQVYTLPPSRDELTKNQVSLTCLVKGFYPSDIAVEWESNGQPENNYKTTPMVLDSDGSFFLYSKLTVDKSRWQQGNVFSCSVMHEALHNHYTQKSLSLSP
chain 2: not shown
Take B7: the Kd with FcgRIIaR [6] came out at 49 µM; with FcgRIIaH [7], 450 µM; with FcgRIIIaV [8] it was 67 µM; with FcgRIa [9], 1.9 µM; with FcgRIIb [10], 3.2 µM.
